Reference: patent publication US20160083712A1

Target: CSN5 WT, soluble MPN domain construct of Example 2 (Homo sapiens)
Assay: ITC

CSN5 WT, soluble MPN domain construct of Example 2 (Homo sapiens), sequence (O35864 1-257 limits assumed): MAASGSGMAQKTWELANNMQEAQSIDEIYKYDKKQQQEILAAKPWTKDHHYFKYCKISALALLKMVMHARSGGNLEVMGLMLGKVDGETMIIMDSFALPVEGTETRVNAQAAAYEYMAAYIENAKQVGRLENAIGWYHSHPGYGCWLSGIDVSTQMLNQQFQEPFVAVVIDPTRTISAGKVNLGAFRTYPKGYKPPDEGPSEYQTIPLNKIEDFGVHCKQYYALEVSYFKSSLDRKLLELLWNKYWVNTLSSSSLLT

## CSN6, soluble MPN domain construct of Example 2 (from UniProt Q7L5N1 31-211)
  Kd: 1000 to 5000 nM
